Reference: the supplement of paper PMC9170038

Test system: MS2 coat protein
Assay: apparent KD of MS2 coat protein; designed switch direction (-1 OFF switch, 1 ON switch): -1; higher = weaker reporter binding
How it was run: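 Designed RNA switches with common flanks were made on Illumina chips by stalled E. coli RNA polymerase. Titration with SNAP-549-labelled MS2 coat protein doubled from 0.7 or 1.5 nM up to 3 µM. Apparent KD is each design's median over clusters after curve-fitting normalised fluorescence.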

[1] = Eterna round: R95, input ligand: microRNA oligo, concentration not stated
[2] = input ligand: microRNA oligo, concentration not stated
[3] = Eterna round: R95, input ligand: FMN 200 uM
[4] = Eterna round: R95, input ligand: none

| Sequence | apparent KD of MS2 coat protein [1] [nM] | apparent KD of MS2 coat protein (input ligand: FMN 200 uM) [nM] | apparent KD of MS2 coat protein (input ligand: none) [nM] | further results |
| --- | --- | --- | --- | --- |
| GUCAUGUUAGGAUAUCUAACAUGUGACUUCGGUCACUGUCCAGAGAAGGAACAUGAGGAUCACCCAUGUUGGAC [Ex4-3: 56] (puzzle: Exclusion 4) | 13 | – | – | – |
| GUCAUGUUAGGAUAUGAGCGGCGACUUAGAAUGUUUGCUACUUAGAAGGAACAUGAGGAUCACCCAUGUUCUAU [EX4 C.14] (Eterna round: R97, puzzle: Exclusion 4) | – | 20.2 | 17.2 | – |
| GUCCAGAUAGGAUAUUGUAAGGGCAACAUGAGGAUCACCCAUGUCGCAAAGAUCGCCCUUCGAGAAGGGUCCAAUU [Eternabot (L1) Solution 39] (Eterna round: R97, puzzle: Exclusion 5) | – | 15.7 | 17.6 | – |
| GUCCUACAUGAGGAUCACCCAUGUGAGGAUAUGCGAUUAGCUGCUAGGUAGUUAGUAUGUAGAAGGCGCGUGAA [EX1 #78] (Eterna round: R97, puzzle: Exclusion 1) | – | 15.6 | 14.4 | – |
| GUCCUGGAAUAUCAGAAGCACAUGAGGAUCACCCAUGUCAUGGGUAGAUCAAUAAAUAAAGAUACUGCUCGUCUUAU [Cac sensor turnoff var1 sub4] (Eterna round: R97, puzzle: Sensor, turn-off variant 1) | – | 837 | 228 | – |
| GUCCUGGAUUAUCACAAGCACAUGAGGAUCACCCAUGUCAUGGGUGGAUCCCUAAAUGGGUAUUCUGCUCGUCUUAU [Cac Sensor turn off v1 sub11] (Eterna round: R97, puzzle: Sensor, turn-off variant 1) | – | 417 | – | – |
| GUCCUUAACGAGGAUAUCGGGCGGGUUUUUGUUUGAGAAGGCGUGACAUGAGGAUCACCCAUGUGGCGCGUGGG [-24.6, -21.7 kcal, A 19%] (Eterna round: R97, puzzle: Exclusion 6) | – | 36.7 | 29.7 | – |
| GUCGAGUGAGGAUAUGGUGAGUAGUGCCUGAGCGCUGCUCACCAGAAGGCACAUGAGGAUCACCCAUGUAUAAC [Mat - Exclusion 4 - Mod of JL - D14] (Eterna round: R96, puzzle: Exclusion 4) | – | 58.1 | 26.1 | apparent KD of MS2 coat protein [2]: 19.7 nM |
| GUCGAGUGAGGAUAUGGUGAGUAGUGCCUGAGCGCUGCUCACCAGAAGGCACAUGAGGAUCACCCAUGUAUAAC [Mat - Exclusion 4 - Mod of JL - D14] (puzzle: Exclusion 4) | 22.3 | – | – | – |
| GUCGAUGUCAAAGGAUAUCAGCACGAUUAGUGCUGAGAAGGUUGAACAUGAGGAUCACCCAUGUAGAUCAUUAACGACUUAAUU [ENG1/10-A2] (Eterna round: R96, puzzle: Exclusion NG 1) | – | 28.4 | 18 | apparent KD of MS2 coat protein [2]: 14.1 nM |
| GUCGAUGUCAAAGGAUAUCAGCACGUGUAGUGCUGAGAAGGUUGAACAUGAGGAUCACCCAUGUAGAUCAUUAACGACUUAAUU [ENG1/10-A3] (Eterna round: R96, puzzle: Exclusion NG 1) | – | 56.1 | 22.9 | apparent KD of MS2 coat protein [2]: 20.3 nM |
| GUCGUGCGGCUUUGCUGUACGAGUACAUGAGGAUCACCCAUGUAGGAUAUGGCUCGCUUUGCGUGCCAGAAGGGCGUGCGUUGG [Excl-NG3-LRO11] (Eterna round: R96, puzzle: Exclusion NG 3) | – | 43.2 | 33.6 | apparent KD of MS2 coat protein [2]: 25.6 nM |
| GUCGUGCGGCUUUGCUGUACGAGUACAUGAGGAUCACCCAUGUAGGAUAUGGUUCGCUUUGCGUGCCAGAAGGGCGUGCGUUGU [Excl-NG3-LRO13] (Eterna round: R96, puzzle: Exclusion NG 3) | – | – | – | apparent KD of MS2 coat protein [2]: 18.9 nM |
| GUCUAGAGAGGAUAUAUUUACACUGUACGUCGGAUGAUUGCACUUGAGGAUCACCCAAGUAGAAGGCUCGAGGG [EX2 #33] (Eterna round: R97, puzzle: Exclusion 2) | – | 130 | 112 | – |
| GUCUCACAUGAGGAUCACCCAUGUGAGGAUAUGGUUUCGCUGGCCGUAGCCAGUGGAACCAGAAGGCGCGUGAU [Mat - Exclusion 1 - JL Mod - D18] (Eterna round: R97, puzzle: Exclusion 1) | – | 71.1 | 65 | – |
| GUCUGCACGCUGCGGUCCUACAUGAGGAUCACCCAUGUGGUCUGGUGGCGUGGGUCACCGGACUUGGCUCGUCUUGC [salish99_S_TOV1_R5_052] (Eterna round: R97, puzzle: Sensor, turn-off variant 1) | – | 19.1 | 18.9 | – |
| GUCUUACAUGAGGAUCACCCAUGUGAGGAUAUGGUUUCGCUGGCCGUAGCCAGUGGAACCAGAAGGCGCGUGAU [Mat - Exclusion 1 - JL Mod - D20] (Eterna round: R97, puzzle: Exclusion 1) | – | 73.1 | 72.8 | – |
| GUGAAACAUGAGGAUCACCCAUGUGAGGAUAUGUUUAAGUAAUGAUGAAAGUAUAUAUACAGAAGGCACAAUGG [Mat - Mod of JL D72] (puzzle: Exclusion 1) | 71.5 | – | – | apparent KD of MS2 coat protein [3]: 142 nM; apparent KD of MS2 coat protein [4]: 64.4 nM |
| GUGAAACAUGAGGAUCACCCAUGUGAGGAUAUGUUUUAGUACUGCUGACAGUACAUCUAUAGAAGGCACAAAGG [Mat - Mod of JL D69] (puzzle: Exclusion 1) | 25.4 | – | – | – |
| GUGAAGGUAGGAUAUACGAUAAUAUAGGGUAGAUAUAUAACACAUGAGGAUCACCCAUGUAGAAGGACCAAUUG [Mat - Exclusion 2 - Mod of my Tesla design - D59] (puzzle: Exclusion 2) | 29.1 | – | – | – |
| GUGAAGUAAGGAUAUACAUGAGGAUCACCCAUGUAAGGGAAGGUGAUGGGAGUAGAUAGUAGAAGGUACGAGGA [JR_Exclu3_Sub066] (puzzle: Exclusion 3) | 103 | – | – | – |
| GUGAAGUGAGGAUAUACGAGAGAGGCUGAACCGGACGAGAAGUAGAAGGCACAUGAGGAUCACCCAUGUACGGG [JR_Exclu4_Sub023] (puzzle: Exclusion 4) | 164 | – | – | – |
| GUGAUAUAGUUAGUGGCCUACAUGAGGAUCACCCAUGUGAGGGAAAUGUUGAGGCGAAAGUUUUUUGCUCGUCUUUA [JR_SV3TOV1_Sub038] (puzzle: Sensor v3, turn-off variant 1) | 38.6 | – | – | apparent KD of MS2 coat protein [3]: 18 nM; apparent KD of MS2 coat protein [4]: 19.1 nM |
| GUGAUCUAUCAUGGGAUAAACAUGAGGAUCACCCAUGUACACAAGUUUUUUGCUCGUCUUAUAAUAAGAUAGAUCAC [Antenna 3 - Jieux - Sensor, turn-off variant 1] (Eterna round: R97, puzzle: Sensor, turn-off variant 1) | – | 21 | 20.9 | – |
| GUGAUCUAUCAUGUAAUGAACAUGAGGAUCACCCAUGUAGACAAGUUUUUUGCUCGUCUCAUAAUAAGAUAGAUCAC [Antenna 17 - Jieux - Sensor, turn-off variant 1] (Eterna round: R97, puzzle: Sensor, turn-off variant 1) | – | 17.5 | 19.3 | – |
| GUGCAACAUGAGGAUCACCCAUGUCAGGAUAUGCGAAUUUCAUCAAAAGAUGAAAUUUGCAGAAGGGACAGCAC [Omei Ex1 A16] (Eterna round: R97, puzzle: Exclusion 1) | – | 32 | 24.4 | – |
